Measured values taken from the supplement of paper PMC9170038.

Test system: MS2 coat protein
Assay: apparent KD of MS2 coat protein; designed switch direction (-1 OFF switch, 1 ON switch): 1; higher = weaker reporter binding
How it was run: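 Designed RNA switches with common flanks were transcribed on Illumina chips by stalled E. coli RNA polymerase and titrated with SNAP-549-labelled MS2 coat protein, from 0.7 or 1.5 nM doubling to 3 µM, in Tris-HCl pH 7.5 buffer with KCl, MgCl2, BSA, DTT, tRNA and Tween-20. Steps lasted 0.8–1.5 h (lowest) to 10–20 min (highest). Titrations ran without input, with 200 uM small-molecule ligand, or with an oligonucleotide input. Normalised cluster fluorescence was curve-fitted, and apparent KD is the per-design median over clusters.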

[1] = input ligand: microRNA oligo, concentration not stated
[2] = Eterna round: R95, input ligand: microRNA oligo, concentration not stated
[3] = Eterna round: R95, input ligand: FMN 200 uM
[4] = Eterna round: R95, input ligand: none

Sequence | apparent KD of MS2 coat protein (input ligand: FMN 200 uM) [nM] | apparent KD of MS2 coat protein [1] [nM] | apparent KD of MS2 coat protein (input ligand: none) [nM] | apparent KD of MS2 coat protein [2] [nM] | apparent KD of MS2 coat protein [3] [nM] | apparent KD of MS2 coat protein [4] [nM]
GCUACCAUUGAUGCCUACAUGAGGAUCACCCAUGUAUGUAGGCAGGAUAUCGAUUGCUUUGCGAUCGAGAAGGGCUUAGGUAGC [JL SSNG3 1.31] (Eterna round: R96, puzzle: Same State NG 3) | 52.4 | 139 | 183 |  |  | 
GCUAGAAAUAAUGCCAACAUGAGGAUCACCCAUGUAUGUUGGCAGGAUAUCGUUUGCUUUGCAAACGAGAAGGGCUAAACUAGC [Mat - Same State NG 3 - JL Mod - D7] (Eterna round: R96, puzzle: Same State NG 3) | 280 | 296 | 280 |  |  | 
GCUAGAAUUAAAGCCAACAUGAGGAUCACCCAUGUAUGUUGGCAGGAUAUCGUUUGCAAAGCAAACGAGAAGGGCCAAACUAGC [Mat - Same State NG 3 - JL Mod - D2] (Eterna round: R96, puzzle: Same State NG 3) | 43.2 | 94.1 | 125 |  |  | 
GCUAGAAUUAAAGCCAACAUGAGGAUCACCCAUGUAUGUUGGCAGGAUAUCGUUUGCAAAGCAAACGAGAAGGGCUAAACUAGC [Mat - Same State NG 3 - JL Mod - D4] (Eterna round: R96, puzzle: Same State NG 3) | 197 | 100 | 244 |  |  | 
GCUAGGAAAGAAGCCAACAUGAGGAUCACCCAUGUAUGUUGGUAGGAUAUCGUAUGCAAAGCAUACGAGAAGGGCUAACCUAGC [Mat - Same State NG 3 - JL Mod - D74] (Eterna round: R96, puzzle: Same State NG 3) | 127 | 127 | 153 |  |  | 
GCUAGUAUAAUUGCUAACAUGAGGAUCACCCAUGUAUGUUGGCAGGAUAUCGUUUGCAAAGCAAACGAGAAGGGCUAAACUAGC [Mat - Same State NG 3 - JL Mod - D14] (Eterna round: R96, puzzle: Same State NG 3) | 36.3 | 103 | 104 |  |  | 
GCUCGAAUCAAAACCAACAUGAGGAUCACCCAUGUAUGUUGGUAGGAUAUCGUUUGCUUUGCAAACGAGAAGGACCAAACGAGC [SameState NG3 #2] (Eterna round: R96, puzzle: Same State NG 3) | 26.8 | 67 | 94.2 |  |  | 
GCUCGAAUCACAGCCAACAUGAGGAUCACCCAUGUGUGUUGGUAGGAUAUCGUUUCUAAGGGAAACGAGAAGGGCCGAACGAGC [SameState NG3 #9] (Eterna round: R96, puzzle: Same State NG 3) | 31.5 | 39.2 | 52.1 |  |  | 
GCUCGACGUGUUGUCUACAUGAGGAUCACCCAUGUAGGUGCGGAGGAUAUCUACGUGUUUUAUGUAGAGAAGGUCGUGUCGAGC [SameState NG3 #88] (Eterna round: R96, puzzle: Same State NG 3) | 15.1 | 15.5 | 17.2 |  |  | 
GCUCGACUGAUGGCCUACAUGAGGAUCACCCAUGUGAUUGGGCAGGAUAUCUAGAUGCAGGAUGUAGAGAAGGGCCUGUCGAGC [SameState NG3 #44] (Eterna round: R96, puzzle: Same State NG 3) | 1170 | 194 | 349 |  |  | 
GCUCGGCUGAUGGCCUACAUGAGGAUCACCCAUGUGAGUGGGCAGGAUAUCUAGAUUCAGGAUGUAGAGAAGGGCCUGCCGAGC [SameState NG3 #39] (Eterna round: R96, puzzle: Same State NG 3) | 1500 | 331 | 1190 |  |  | 
GCUCGUAUCACAACCGACAUGAGGAUCACCCAUGUAUGUUGGUAGGAUAUCUAUAUUAAGGAUAUAGAGAAGGGCCGAACGAGC [SameState NG3 #13] (Eterna round: R96, puzzle: Same State NG 3) | 14.6 | 10.4 | 18.7 |  |  | 
GGAAAACAUGAGGAUCACCCAUGUGAAAACGUGGGAGGAUAUCGAUGGAAACCAUACUGUCGAGAAGGCCCAUGUC [EteRNA is fun!] (Eterna round: R96, puzzle: Same State 1) |  | 41.8 |  |  |  | 
GGAAAGAGGUUAGGAUAUGCAUGGCUGGGACAUGAGGAUCACCCAUGUAAUAGAAGAAAUCUACAGUAGAAGGGACAAGGAAGG [AK SSNG2-V2-8] (Eterna round: R96, puzzle: Same State NG 2) | 759 | 262 | 224 |  |  | 
GGAAUAUUUACAGGAUAUGAUUUGUAAAUUCGAUCAGAAGGGUAGAUGUCUUACACGACUUGUUACAUGAGGAUCACCCAUGUU [SameState NG1 #9] (Eterna round: R96, puzzle: Same State NG 1) | 41.6 | 48.8 | 67.3 |  |  | 
GGACGUCAAUAUGAAUUCCACAUGAGGAUCACCCAUGUUCAUGAGGAUAUGGAUCCUAAUUGGAUCCAGAAGGCAUGGACGUCC [Fiskers NG3ss - 38] (Eterna round: R96, puzzle: Same State NG 3) | 81.9 | 163 | 194 |  |  | 
GGAGAACAUGAGGAUCACCCAUGUGGAUGGGCGCUAGGAUAUGCGGGAGGGUGAAGAGAAGCAGAAGGAGUGGAUA [JR_SS1_Sub035] (puzzle: Same State 1) |  |  |  | 56.7 |  | 
GGAGAAUAACUAGAGGAUAUCCGAGUGGUAACAUGAGGAUCACCCAUGUGAUGAAAGGAACAUGAGGAGAAGGCUAGAAUGAAGG [Mat - Same State 2 - Mod of JL - D85] (puzzle: Same State 2) |  |  |  | 34.9 | 37.3 | 77.6
GGAGCCAAGGCAGGAUAUUCAUACUAAUAACAUGAGGAUCACCCAUGUAAGGCCAGAAGGCCUUGGGAGAAGGGCCAUGGCUCG [Xeonanis - 13 mod3] (Eterna round: R96, puzzle: Same State NG 2) | 22 | 57.1 | 86.7 |  |  | 
GGAGCCAAGGCAGGAUAUUCAUAUUAAAACAUGAGGAUCACCCAUGUAAAGGCCAGAAGGCCGUGGGAGAAGGGCCAUGGCUCG [Xeonanis - 13 mod15] (Eterna round: R96, puzzle: Same State NG 2) | 38.5 | 51.7 | 116 |  |  | 
GGAGCCAAGGCAGGAUAUUCAUAUUAAAACAUGAGGAUCACCCAUGUAAAGGCCAGAAGGCCUUUGGAGAAGGGCCAUGGCUCG [Xeonanis - 13 mod14] (Eterna round: R96, puzzle: Same State NG 2) | 17.7 | 15 | 24.4 |  |  | 
GGAGCCAAGGCAGGAUAUUCAUAUUAAAUAACAUGAGGAUCACCCAUGUUGGCCAGAAGGCCAUGGGAGAAGGGCCAUGGCUCG [Xeonanis - 13 mod22] (Eterna round: R96, puzzle: Same State NG 2) | 18.8 | 53.1 | 87.2 |  |  | 
GGAGCCAAGGCAGGAUAUUCAUAUUAAUAACACAUGAGGAUCACCCAUGUGGCCAGAAGGCCAUGGGAGAAGGGCCAUGGCUCG [Xeonanis - 13 mod10] (Eterna round: R96, puzzle: Same State NG 2) | 86.3 | 195 | 469 |  |  | 
GGAGCCAAGGCAGGAUAUUCAUAUUAAUUACAUGAGGAUCACCCAUGUUAGGCCAGAAGGCCUUGGGAGAAGGGCCAUGGCUCG [Xeonanis - 13 mod19] (Eterna round: R96, puzzle: Same State NG 2) | 22.9 | 47.2 | 60.6 |  |  | 
GGAGCCGGCACCGAGGAUAUUUAUAUUAAAACAUGAGGAUCACCCAUGUAGGCCAGAAGGCCUUGGGAGAAGGCGGAUCGGCUCG [Xeonanis - 5] (puzzle: Same State 2) |  |  |  | 75.7 | 16.4 | 79.6
GGAGCCGGCACUGAGGAUAUUCAUAUUUAAACAUGAGGAUCACCCAUGUAGGCCAGAAGGCCUUGGGAGAAGGCAGGUCGGCUCU [salish99_ss2_r3_077] (puzzle: Same State 2) |  |  |  | 247 | 20.8 | 434
GGAGCCGGUACUGAGGAUAUUCAUUUUAAAACAUGAGGAUCACCCAUGUAGGCCAGAAGGCCUUGGGAGAAGGCAGAUCGGCUCC [Biseusra - 6] (puzzle: Same State 2) |  |  |  | 180 | 19 | 281
GGAGCCGGUACUGAGGAUAUUUAUAUUAAAACAUGAGGAUCACCCAUGUAGGCCAGAAGGCCUUGGGAGAAGGCAGAUCGGCUCC [Biseusra - 5] (puzzle: Same State 2) |  |  |  | 46.2 | 15.1 | 72.8
GGAGCUGGCACUGAGGAUAUUCAUAUUUAAACAUGAGGAUCACCCAUGUAGGCCAGAAGGCCUUGGGAGAAGGCAGGUCGGCUCG [salish99_ss2_r3_085] (puzzle: Same State 2) |  |  |  | 254 | 24.6 | 354
GGAGGAUGAGCGUAGGAUAUAGGAGGAGUGACAUGAGGAUCACCCAUGUAGUAGGAGGGAAAGGGCUAGAAGGACGAGGAAGAGG [JR_SS2_Sub071] (puzzle: Same State 2) |  |  |  | 51.2 | 56.1 | 70.2
